Common to all, as to test: binding, other
The target of one assay is T1, KLK3 peptide on HLA (human).
T1 peptide: KVMDLPTQEPAL

Assay [1] addresses T2, HTR3A peptide on HLA (human).
T2 peptide: AILNVDEKNQV

A further assay has as its target T3, DCAF4L2 peptide on HLA (human).
T3 peptide: ILQDGQFLV

In another assay the target is T4, KLK4 peptide on HLA (human).
T4 peptide: KLYDPLYHPSM

Assay [2] addresses T5, HTR3A peptide on HLA (human).
T5 peptide: SLAETIFIV

Assay [3] has as its target T6, HOXB13 peptide on HLA (human).
T6 peptide: YLDVSVVQT

For assay [4], the target named is T7, HOXB13 peptide on HLA (human).
T7 peptide: SLSERQITI

Where a chain is given by its changes, count along the chain named.

B1: TCR of SEQ ID NOs 391 and 392 (TCR, V domains shown)
Valpha: QKEVEQNSGPLSVPEGAIASLNCTYSDRGSQSFFWYRQYSGKSPELIMSIYSNGDKEDGRFTAQLNKASQYVSLLIRDSQPSDSATYLCAVNSPGNARLMFGDGTQLVVKP
Vbeta: NAGVTQTPKFQVLKTGQSMTLQCAQDMNHEYMSWYRQDPGMGLRLIHYSVGAGITDQGEVPNGYNVSRSTTEDFPLRLLSAAPSQTSVYFCASSYWRGGLEQYFGPGTRLTVT
As to B1, in the assay with KLK3 peptide on HLA, the binding result was “recognises”.

B2: TCR of SEQ ID NOs 379 and 380 (TCR, V domains shown)
Valpha: KQEVTQIPAALSVPEGENLVLNCSFTDSAIYNLQWFRQDPGKGLTSLLLIQSSQREQTSGRLNASLDKSSGRSTLYIAASQPGDSATYLCAVSPFDLYGQNFVFGPGTRLSVLP
Vbeta: NAGVTQTPKFQVLKTGQSMTLQCAQDMNHNSMYWYRQDPGMGLRLIYYSASEGTTDKGEVPNGYNVSRLNKREFSLRLESAAPSQTSVYFCASRGTLFDPQHFGDGTRLSIL
Turning to B2, in the assay with HTR3A peptide on HLA [1], the binding result is “recognises”.

B3: TCR of SEQ ID NOs 361 and 362 (TCR, V domains shown)
Valpha: KQEVTQIPAALSVPEGENLVLNCSFTDSAIYNLQWFRQDPGKGLTSLLLIQSSQREQTSGRLNASLDKSSGRSTLYIAASQPGDSATYLCAVDTGRRALTFGSGTRLQVQP
Vbeta: NAGVTQTPKFQVLKTGQSMTLQCAQDMNHEYMYWYRQDPGMGLRLIHYSVGEGTTAKGEVPDGYNVSRLKKQNFLLGLESAAPSQTSVYFCASRDQINEKLFFGSGTQLSVL
For the molecule B3, the binding result with DCAF4L2 peptide on HLA is “recognises”.

B4: TCR of SEQ ID NOs 363 and 364 (TCR, V domains shown)
Valpha: B3 Valpha with D93N, T94L, R96A, R97Q, A98K, T100V, S103Q, Q108T, V109I, Q110N
Vbeta: NAGVTQTPKFRILKIGQSMTLQCTQDMNHNYMYWYRQDPGMGLKLIYYSVGAGITDKGEVPNGYNVSRSTTEDFPLRLELAAPSQTSVYFCASSSFDRDEAFFGQGTKLTVV
Turning to B4, the binding result with DCAF4L2 peptide on HLA is on record as “recognises”.

B5: TCR of SEQ ID NOs 377 and 378 (TCR, V domains shown)
Valpha: KQEVTQIPVALSVPEGENLVLNCSFTDSAIYNLQWFRQDPGKGLTSLLLIQSSQREQTSGRLNASLDKSSGRSTLYIAASQPGDSATYLCAVTDSWGKLQFGAGTQVVVTP
Vbeta: NAGVTQTPKFQVLKTGQSMTLQCAQDMNHNSMYWYRQDPGMGLRLIYYSASEGTTDKGEVPNGYNVSRLNKREFSLRLESAAPSQTSLYFCASSEGPADTYGYTFGSGTRLTVV
Take B5: in the assay with HTR3A peptide on HLA [1], the binding result was “recognises”.

B6: TCR of SEQ ID NOs 395 and 396 (TCR, V domains shown)
Valpha: B5 Valpha with V9A, T93L
Vbeta: NAGVTQTPKFRVLKTGQSMTLLCAQDMNHEYMYWYRQDPGMGLRLIHYSVGEGTTAKGEVPDGYNVSRLKKQNFLLGLESAAPSQTSVYFCASSGLLSPDTQYFGPGTRLKVL
Take B6: the binding result in the assay with KLK4 peptide on HLA was “recognises”.

B7: TCR of SEQ ID NOs 385 and 386 (TCR, V domains shown)
Valpha: KQEVTQIPAALSVPEGENLVLNCSFTDSAIYNLQWFRQDPGKGLTSLLLIQSSQREQTSGRLNASLDKSSGRSTLYIAASQPGDSATYLCAVLTDSWGKLQFGAGTQVVVTP
Vbeta: NAGVTQTPKFRVLKTGQSMTLLCAQDMNHEYMYWYRQDPGMGLRLIHYSVGEGTTAKGEVPDGYNVSRLKKQNFLLGLESAAPSQTSVYFCASSYWGGNTEAFFGQGTRLTVV
As for B7, the binding result in the assay with HTR3A peptide on HLA [2] was “recognises”.

B8: TCR of SEQ ID NOs 373 and 374 (TCR, V domains shown)
Valpha: KQEVTQIPAALSVPEGENLVLNCSFTDSAIYNLQWFRQDPGKGLTSLLLIQSSQREQTSGRLNASLDKSSGRSTLYIAASQPGDSATYLCAANDPMDSSYKLIFGSGTRLLVRP
Vbeta: NAGVTQTPKFRVLKTGQSMTLLCAQDMNHEYMYWYRQDPGMGLRLIHYSVGEGTTAKGEVPDGYNVSRLKKQNFLLGLESAAPSQTSVYFCASSPLDGWNYGYTFGSGTRLTVV
On to B8, for which the binding result in the assay with HOXB13 peptide on HLA [3] is “recognises”.

B9: TCR of SEQ ID NOs 367 and 368 (TCR, V domains shown)
Valpha: KQEVTQIPAALSVPEGENLVLNCSFTDSAIYNLQWFRQDPGKGLTSLLLIQSSQREQTSGRLNASLDKSSGRSTLYIAASQPGDSATYLCAVRPHGQNFVFGPGTRLSVLP
Vbeta: NAGVTQTPKFRVLKTGQSMTLLCAQDMNHEYMYWYRQDPGMGLRLIHYSVGEGTTDKGEVPNGYNVSRLNKREFSLRLESAAPSQTSVYFCASSSLARETQYFGPGTRLLVL
As for B9, the binding result with HOXB13 peptide on HLA [4] is recorded as “recognises”.

B10: TCR of SEQ ID NOs 393 and 394 (TCR, V domains shown)
Valpha: AQSVTQLDSHVSVSEGTPVLLRCNYSSSVPPYLFWYVQYPNQGLQLLLKYTTGATLVKGINGFEAEFKKSETSFHLTKPSAHMSDAAEYFCAVSEDGNKLVFGAGTILRVKS
Vbeta: AAGVIQSPRHLIKEKRETATLKCYPIPRHDTVYWYQQGPGQDPQFLISFYEKMQSDKGSIPDRFSAQQFSDYHSELNMSSLELGDSALYFCASRLTGVSGEGDYGYTFGSGTRLTVV
In the case of B10, the binding result in the assay with KLK3 peptide on HLA is given as “recognises”.

B11: TCR of SEQ ID NOs 359 and 360 (TCR, V domains shown)
Valpha: KQEVTQIPAALSVPEGENLVLNCSFTDSAIYNLQWFRQDPGKGLTSLLLIQSSQREQTSGRLNASLDKSSGRSTLYIAASQPGDSATYLCAVRPTRGDSWGKLQFGAGTQVVVTP
Vbeta: NAGVTQTPKFQVLKTGQSMTLQCAQDMNHNSMYWYRQDPGMGLRLIYYSASEGTTDKGEVPNGYNVSRLNKREFSLRLESAAPSQTSVYFCASSYSLLGNEAFFGQGTRLTVV
Turning to B11, the binding result with DCAF4L2 peptide on HLA was “recognises”.

B12: TCR of SEQ ID NOs 387 and 388 (TCR, V domains shown)
Valpha: B7 Valpha with L93S, T94G
Vbeta: B11 Vbeta with S96W, L97G, L98P, G99N, N100T
Regarding B12, the binding result in the assay with HTR3A peptide on HLA [2] is “recognises”.

B13: TCR of SEQ ID NOs 381 and 382 (TCR, V domains shown)
Valpha: KQEVTQIPAALSVPEGENLVLNCSFTDSAIYNLQWFRQDPGKGLTSLLLIQSSQREQTSGRLNASLDKSSGRSTLYIAASQPGDSATYLCAVRPADSWGKLQFGAGTQVVVTP
Vbeta: NAGVTQTPKFRILKIGQSMTLQCTQDMNHNYMYWYRQDPGMGLKLIYYSVGAGITDKGEVPNGYNVSRSTTEDFPLRLELAAPSQTSVYFCASSYSLGELFFGEGSRLTVL
For the molecule B13, the binding result with HTR3A peptide on HLA [1] was “recognises”.

B14: TCR of SEQ ID NOs 383 and 384 (TCR, V domains shown)
Valpha: B13 Valpha with R93L, P94T, A95T
Vbeta: NAGVTQTPKFRILKIGQSMTLQCTQDMNHNSMYWYRQDPGMGLRLIYYSASEGTTDKGEVPNGYNVSRLNKREFSLRLESAAPSQTSVYFCASSELIGTVDYSNQPQHFGDGTRLSIL
As to B14, the binding result with HTR3A peptide on HLA [2] was “recognises”.

B15: TCR of SEQ ID NOs 399 and 400 (TCR, V domains shown)
Valpha: KQEVTQIPAALSVPEGENLVLNCSFTDSAIYNLQWFRQDPGKGLTSLLLIRSSQREQTSGRLNASLDKSSGRSTLYIAASQPGDSATYLCAVMSSQGGSEKLVFGKGTKLTVNP
Vbeta: NAGVTQTPKFRVLKTGQSMTLLCAQDMNHEYMYWYRQDPGMGLRLIHYSVGEGTTAKGEVPDGYNVSRLKKQNFLLGLESAAPSQTSVYFCASKGLVADTIYFGEGSWLTVV
Turning to B15, the binding result with KLK4 peptide on HLA is reported as “recognises”.

B16: TCR of SEQ ID NOs 389 and 390 (TCR, V domains shown)
Valpha: QKEVEQNSGPLSVPEGAIASLNCTYSDRGSQSFFWYRQYSGKSPELIMSIYSNGDKEDGRFTAQLNKASQYVSLLIRDSQPSDSATYLCAVWGKSGGYNKLIFGAGTRLAVHP
Vbeta: NAGVTQTPKFGILKTGQSMTLQCAQDMNHEYMSWYRQDPGMGLRLIHYSVGAGITDKGEVPNGYNVSRSTTEDFPLRLELAAPSQTSVYFCASSYSSPLRQDNSPLHFGNGTRLTVT
For B16, in the assay with KLK3 peptide on HLA, the binding result was “recognises”.

B17: TCR of SEQ ID NOs 371 and 372 (TCR, V domains shown)
Valpha: KQEVTQIPAALSVPEGENLVLNCSFTDSAIYNLQWFRQDPGKGLTSLLLIQSSQREQTSGRLNASLDKSSGRSTLYIAASQPGDSATYLCAVRHDYQLSFGAGTTVTVRA
Vbeta: NAGVTQTPKFQVLKTGQSMTLQCAQDMNHEYMSWYRQDPGMGLRLIHYSVGAGITDQGEVPNGYNVSRSTTEDFPLRLLSAAPSQTSVYFCASSRIGQRASFFGSGTRLTVV
B17: the binding result with HOXB13 peptide on HLA [3] is reported as “recognises”.

B18: TCR of SEQ ID NOs 365 and 366 (TCR, V domains shown)
Valpha: KQEVTQIPAALSVPEGENLVLNCSFTDSAIYNLQWFRQDPGKGLTSLLLIQSSQREQTSGRLNASLDKSSGRSTLYIAASQPGDSATYLCAVGGYNKLIFGAGTRLAVHP
Vbeta: NAGVTQTPKFQVLKTGQSMTLQCAQDMNHNSMYWYRQDPGMGLRLIYYSASEGTTDKGEVPNGYNVSRSTTEDFPLRLLSAAPSQTSVYFCASSYQGTGELFFGEGSRLTVL
On to B18, for which the binding result with HOXB13 peptide on HLA [4] is reported as “recognises”.

B19: TCR of SEQ ID NOs 397 and 398 (TCR, V domains shown)
Valpha: B18 Valpha with V92A, N96Q, L98V, I99T, A102T, R105K, A107Q, H109I
Vbeta: B13 Vbeta with E79L, L80S, S94R, Y95R, S96P, L97T
For B19, in the assay with KLK4 peptide on HLA, the binding result is reported as “recognises”.

B20: TCR of SEQ ID NOs 375 and 376 (TCR, V domains shown)
Valpha: B17 Valpha with Q97K
Vbeta: B17 Vbeta
Take B20: the binding result in the assay with HOXB13 peptide on HLA [3] is reported as “recognises”.

B21: TCR of SEQ ID NOs 369 and 370 (TCR, V domains shown)
Valpha: B18 Valpha with N96Q, L98V, I99T, A102T, R105K, A107Q, H109I
Vbeta: NAGVTQTPKFQVLKTGQSMTLQCAQDMNHNSMYWYRQDPGMGLRLIYYSASEGTTDKGEVPNGYNVSRSTTEDFPLRLLSAAPSQTSVYFCASSYQGGNEKLFFGSGTQLSVL
In the case of B21, in the assay with HOXB13 peptide on HLA [4], the binding result is “recognises”.
